Two molecules from PMC8499050 (Blood, 2021) can be followed below.

Test [1] deals with EGR-chloromethylketone active-site inhibited des-(Gla-EGF1) FIXa (Homo sapiens, EGR-chloromethylketone in the active site). In words: crystal structure.
Test [2] concerns the target T1, EGR-chloromethylketone active-site inhibited des-(Gla-EGF1) FXa (Homo sapiens, EGR-chloromethylketone in the active site).
T1 chain 1: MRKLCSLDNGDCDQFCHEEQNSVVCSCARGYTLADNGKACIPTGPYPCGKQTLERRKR
T1 chain 2: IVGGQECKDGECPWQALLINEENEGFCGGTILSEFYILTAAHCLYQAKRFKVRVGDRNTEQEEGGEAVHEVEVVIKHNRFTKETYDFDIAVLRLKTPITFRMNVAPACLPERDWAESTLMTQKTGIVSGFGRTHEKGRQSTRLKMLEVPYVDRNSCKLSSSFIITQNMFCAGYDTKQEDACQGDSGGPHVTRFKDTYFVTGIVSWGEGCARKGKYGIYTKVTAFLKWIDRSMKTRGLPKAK
In words: crystal structure.

B1: Mim8 anti-FIXa Fab fragment (Fab, V domains shown)
VH: EVQLVESGGGLVQPGRSLRLSCAASGFTFHDYAMHWVRQVPGKGLEWVSGISWRGDIGGYVKSVKGRFTISRDNAKNSLYLQMNSLRAEDTALYYCVKSYGSGSFYNAFDSWGQGTLVTVSS
VL: DIQMTQSPSTLSASVGDRVTITCRASQSISSWLAWYQQKPGKAPKFLIYKASKLERGTPSRFSGSGDGTEFSLTISSLQPDDFATYYCLEYSSYIRTFGQGTKVEIK
As for B1, the binding result in test [1] is listed as “binds”.

B2: Mim8 anti-FX Fab fragment (Fab, V domains shown)
VH: EVQLVQSGAEVKKPGESLRISCKGSGYSFSTSWIVWVRQMPGKGLEWMGMIDPSDSFTSYSPSFQGHVTISADKSISTAYLQWSSLKASDTAMYYCARLHYYNSEEFDVWGQGTLVTVSS
VL: EIVLTQSPGTLSLSPGERATLSCRASQSVSSSYLAWYQQKPGQAPRLLIYGQSSRTRGIPDRFSGSGSGTDFTLTISRLEPEDFAVYYCQQFGDSQLFTFGQGTKLEIK
B2: the binding result in test [2] is “binds”.
